Experimental data as given in patent publication US20240294646A1.

Experiments:
[1] = molecular target: Soluble FcγRIIb extracellular domain with C-terminal 10×His tag (UniProt P31994); experiment: SPR (Biacore 4000), antibody captured on immobilised HER2, soluble receptor as analyte
[2] = molecular target: Soluble FcγRIIaR extracellular domain with C-terminal 10×His tag (UniProt P12318); experiment: as above
FcγRIIb [3] = molecular target: FcγRIIb (UniProt P31994); experiment: SPR (Protocol 2); ratio of the fold for FcγRIIb to the fold for FcγRIIaR
Sequence of FcγRIIb (P31994 43-217): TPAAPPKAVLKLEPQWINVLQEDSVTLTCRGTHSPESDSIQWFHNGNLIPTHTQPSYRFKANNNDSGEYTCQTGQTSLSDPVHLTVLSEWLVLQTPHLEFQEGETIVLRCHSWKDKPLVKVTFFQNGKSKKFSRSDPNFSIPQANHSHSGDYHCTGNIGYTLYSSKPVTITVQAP

FcγRIIaR = FcγRIIaR (UniProt P12318); experiment: SPR (Protocol 2), antibody captured on immobilised HER2, receptor as analyte
Sequence of FcγRIIaR (P12318 34-217): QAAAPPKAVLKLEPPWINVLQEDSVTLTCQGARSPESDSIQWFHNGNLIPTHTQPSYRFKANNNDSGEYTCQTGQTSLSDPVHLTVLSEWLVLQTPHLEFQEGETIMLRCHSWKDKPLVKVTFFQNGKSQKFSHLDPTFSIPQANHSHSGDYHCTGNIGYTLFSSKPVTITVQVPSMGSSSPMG

FcγRIIb [4] = molecular target: FcγRIIb (UniProt P31994); experiment: as above
C1q (human) = C1q (human) (UniProt P02745); experiment: ELISA; antibody coated, human C1q added, signal as % of WT
Sequence of C1q (human) (P02745 23-245 limits assumed, chain 1 of 3): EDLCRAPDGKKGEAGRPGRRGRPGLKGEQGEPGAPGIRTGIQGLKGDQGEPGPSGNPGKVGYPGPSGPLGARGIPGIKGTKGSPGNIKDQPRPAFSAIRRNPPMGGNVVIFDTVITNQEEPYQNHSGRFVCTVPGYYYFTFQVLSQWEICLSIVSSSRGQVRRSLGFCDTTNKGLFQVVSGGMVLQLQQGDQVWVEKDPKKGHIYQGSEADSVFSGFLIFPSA
Sequence of C1q (human) (P02746 28-253 limits assumed, chain 2 of 3, further chain): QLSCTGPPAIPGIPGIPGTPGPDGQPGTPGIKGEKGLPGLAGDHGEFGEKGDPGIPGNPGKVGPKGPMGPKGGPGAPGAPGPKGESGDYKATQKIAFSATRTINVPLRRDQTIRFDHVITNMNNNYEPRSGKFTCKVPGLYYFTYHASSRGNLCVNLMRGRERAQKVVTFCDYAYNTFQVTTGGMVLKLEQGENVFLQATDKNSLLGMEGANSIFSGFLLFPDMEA
Sequence of C1q (human) (P02747 29-245 limits assumed, chain 3 of 3, further chain): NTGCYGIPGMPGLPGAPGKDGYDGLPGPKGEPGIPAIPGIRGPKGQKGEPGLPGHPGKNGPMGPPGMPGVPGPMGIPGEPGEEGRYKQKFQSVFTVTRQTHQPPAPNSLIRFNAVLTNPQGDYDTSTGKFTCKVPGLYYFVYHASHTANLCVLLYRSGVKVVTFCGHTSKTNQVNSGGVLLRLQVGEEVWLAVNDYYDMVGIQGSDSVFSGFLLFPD

Sequence of Soluble FcγRIIaR extracellular domain with C-terminal 10×His tag (P12318 other isoform, or with tags, fused parts or gaps): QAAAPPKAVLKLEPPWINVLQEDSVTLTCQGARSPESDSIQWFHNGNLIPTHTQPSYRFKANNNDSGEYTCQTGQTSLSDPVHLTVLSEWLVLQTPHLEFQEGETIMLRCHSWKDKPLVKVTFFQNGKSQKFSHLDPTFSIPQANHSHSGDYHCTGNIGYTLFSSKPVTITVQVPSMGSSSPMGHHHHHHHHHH
Sequence of Soluble FcγRIIb extracellular domain with C-terminal 10×His tag (P31994 other isoform, or with tags, fused parts or gaps): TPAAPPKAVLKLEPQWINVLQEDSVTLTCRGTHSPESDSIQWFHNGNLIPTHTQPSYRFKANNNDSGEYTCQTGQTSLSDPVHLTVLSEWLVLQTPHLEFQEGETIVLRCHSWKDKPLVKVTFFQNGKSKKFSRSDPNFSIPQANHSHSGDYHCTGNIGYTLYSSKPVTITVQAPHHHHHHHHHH

| Substance | Kd [1] [nM] | Kd [2] [nM] | IIb/IIaR Selectivity (IIb-Fold/IIaR-Fold) (FcγRIIb [3]) | IIaR-Fold (fold change in affinity over wild-type) (fold over wild-type) (FcγRIIaR) | IIb-Fold (fold change in affinity over wild-type) (fold over wild-type) (FcγRIIb [4]) | C1q Binding (% WT) (C1q (human)) |
| --- | --- | --- | --- | --- | --- | --- |
| Variant 26704 (A_E269Q_strat2), one-armed trastuzumab antibody | 22 | 66 | – | – | – | – |
| Variant 26701 (A_E269Y_strat2), one-armed trastuzumab antibody | 21 | 67 | – | – | – | – |
| Variant 26708 (A_E269K_strat2), one-armed trastuzumab antibody | 22 | 70 | – | – | – | – |
| Variant 26714 (A_D270L_strat2), one-armed trastuzumab antibody | 33 | 79 | – | – | – | – |
| Variant 26711 (A_D270G_strat2), one-armed trastuzumab antibody | 53 | 180 | – | – | – | – |
| Variant 26716 (A_D270F_strat2), one-armed trastuzumab antibody | 17 | 48 | – | – | – | – |
| Variant 19526 (chain A: G236D / chain B: G236K_S239D_H268D), one-armed trastuzumab antibody, Scaffold 2 | – | – | 3.5 | 0.4 | 1.4 | – |
| Variant 32277 (trastuzumab FSA; chain A S239G_strat2, chain B G237L_strat2) (antibody) | – | – | – | – | – | 0 |
| Variant 19514 (chain A: none / chain B: G236H_S239D_H268D), one-armed trastuzumab antibody, Scaffold 2 | – | – | 1.7 | 2.5 | 4.2 | – |
| Variant 19520 (chain A: none / chain B: G236E_S239D_H268D), one-armed trastuzumab antibody, Scaffold 2 | – | – | 1.5 | 17.5 | 26.5 | – |
| Variant 26720 (A_D270S_strat2), one-armed trastuzumab antibody | 29 | 79 | – | – | – | – |
| Variant 19521 (chain A: G236N / chain B: G236D_S239D_H268D), one-armed trastuzumab antibody, Scaffold 2 | – | – | 6.8 | 5.5 | 37.6 | – |
| Variant 32273 (trastuzumab FSA; chain A L235R_strat2, chain B G237L_strat2) (antibody) | – | – | – | – | – | 2 |
| Variant 26719 (A_D270T_strat2), one-armed trastuzumab antibody | 23 | 63 | – | – | – | – |
| Variant 19515 (chain A: G236Q / chain B: S239D_H268D), one-armed trastuzumab antibody, Scaffold 2 | – | – | 0.7 | 14.2 | 9.6 | – |
| Variant 19508 (chain A: none / chain B: S239D_H268D), one-armed trastuzumab antibody, Scaffold 2 | – | – | 1.2 | 25.6 | 31.1 | – |
| Variant 19694 (chain A: none / chain B: G236D_G237F_S239D_H268D), one-armed trastuzumab antibody, Scaffold 2 | – | – | 2.9 | 18.2 | 53.5 | – |
| Variant 19512 (chain A: none / chain B: G236N_S239D_H268D), one-armed trastuzumab antibody, Scaffold 2 | – | – | 2.5 | 3.2 | 7.9 | – |
| Variant 19524 (chain A: G236Q / chain B: G236D_S239D_H268D), one-armed trastuzumab antibody, Scaffold 2 | – | – | 1.2 | 8.9 | 10.3 | – |
| Variant 26715 (A_D270I_strat2), one-armed trastuzumab antibody | 25 | 81 | – | – | – | – |
| Variant 19504 (chain A: G236N_G237F / chain B: G236N_G237F), one-armed trastuzumab antibody, Scaffold 2 | – | – | 3.3 | 0.05 | 0.2 | – |

| Substance | Kd [1] [nM] | Kd [2] [nM] | IIb/IIaR Selectivity (IIb-Fold/IIaR-Fold) (FcγRIIb [3]) | IIaR-Fold (fold change in affinity over wild-type) (fold over wild-type) (FcγRIIaR) | IIb-Fold (fold change in affinity over wild-type) (fold over wild-type) (FcγRIIb [4]) | C1q Binding (% WT) (C1q (human)) |
| --- | --- | --- | --- | --- | --- | --- |
| Variant 19517 (chain A: G236D / chain B: S239D_H268D), one-armed trastuzumab antibody, Scaffold 2 | – | – | 2.6 | 11.6 | 30.5 | – |
| Variant 26702 (A_E269T_strat2), one-armed trastuzumab antibody | 26 | 64 | – | – | – | – |
| Variant 32261 (trastuzumab FSA; chain A L234Q_strat1, chain B G330*K_strat1) (antibody) | – | – | – | – | – | 209 |
| Variant 32263 (trastuzumab FSA; chain A L235A_strat1, chain B G330*K_strat1) (antibody) | – | – | – | – | – | 170 |
| Variant 19507 (chain A: G236E / chain B: G236E), one-armed trastuzumab antibody, Scaffold 2 | – | – | 0.4 | 1.8 | 0.8 | – |
| Variant 32268 (trastuzumab FSA; chain A S239T_strat1, chain B G330*K_strat1) (antibody) | – | – | – | – | – | 210 |
| Variant 19518 (chain A: none / chain B: G236D_S239D_H268D), one-armed trastuzumab antibody, Scaffold 2 | – | – | 2.2 | 14.7 | 32.9 | – |
| Variant 19525 (chain A: G236D / chain B: G236Q_S239D_H268D), one-armed trastuzumab antibody, Scaffold 2 | – | – | 3.7 | 2.1 | 7.7 | – |
| Variant 32255 (trastuzumab FSA; chain A S239T_strat1, chain B D329*I_F328*Y_strat1) (antibody) | – | – | – | – | – | 194 |
| Variant 19513 (chain A: G236H / chain B: S239D_H268D), one-armed trastuzumab antibody, Scaffold 2 | – | – | 0.6 | 13.4 | 8.2 | – |
| Variant 19509 (chain A: G236N / chain B: S239D_H268D), one-armed trastuzumab antibody, Scaffold 2 | – | – | 3.3 | 9.7 | 31.8 | – |
| Variant 19531 (chain A: G236D / chain B: G236H_S239D_H268D), one-armed trastuzumab antibody, Scaffold 2 | – | – | 2.3 | 1.6 | 3.7 | – |
| Variant 16493 (chain A: G236N / chain B: G236N), one-armed trastuzumab antibody, Scaffold 2 | – | – | 3.1 | 0.3 | 0.8 | – |
| Variant 32260 (trastuzumab FSA; chain A L234D_strat1, chain B G330*K_strat1) (antibody) | – | – | – | – | – | 189 |
| Variant 32256 (trastuzumab FSA; chain A A237D_strat1, chain B G330*K_strat1) (antibody) | – | – | – | – | – | 124 |
| Variant 19527 (chain A: G236N / chain B: G236K_S239D_H268D), one-armed trastuzumab antibody, Scaffold 2 | – | – | 6 | 0.2 | 1.2 | – |
| Variant 19503 (chain A: G236N_G237A / chain B: G236N_G237A), one-armed trastuzumab antibody, Scaffold 2 | – | – | 4.5 | 0.04 | 0.2 | – |
| Variant 16490 (chain A: G236D / chain B: G236D), one-armed trastuzumab antibody, Scaffold 2 | – | – | 2.4 | 0.9 | 2.1 | – |
| Variant 32257 (trastuzumab FSA; chain A A237E_strat1, chain B G330*K_strat1) (antibody) | – | – | – | – | – | 145 |
| Variant 19528 (chain A: G236N / chain B: G236S_S239D_H268D), one-armed trastuzumab antibody, Scaffold 2 | – | – | 2.8 | 6.7 | 18.6 | – |
| Variant 19510 (chain A: G236N_G237A / chain B: S239D_H268D), one-armed trastuzumab antibody, Scaffold 2 | – | – | 3.1 | 1.8 | 5.5 | – |
